Assay results reported in the nanobody polyreactivity screen of Harvey et al. (2022).

Test: yeast display, Sf9 membrane polyspecificity reagent, FACS + sequencing; frameworks hold sequencing errors
Procedure, shortened: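 Sorting gates, low and high (top ~1%), were placed on anti-HA fluorescence to track expression and on streptavidin fluorescence to track reagent binding. A clone's polyreactivity label is taken from the gate it came out of. The reagent was 10% biotinylated, detergent-solubilized Sf9 membrane, applied for 1 hour at 4 °C to galactose-induced yeast display cells.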

Sequence	polyreactivity (PSR sort gate)
QVQLVESGGGLVQAGGSLRLSCAASGFIFGANAMGWYRQAPGKERELVAAITWSAGRTYYADSVKGRFTISRDNAKNNVYLQMNSLKPEDTAVYYCAKQRARQSPEVGYWGQGTQVTVSS	high polyreactivity
QVQLVESGGGLVQAGGSLRLSCAASGRTLKYNVMGWYRQAPGKERELVASITSRGGSTRYADSVKGRFTISRDNAKNTVYLLMNSLKPEDTAVYYCAARYTTARSSYDYWGQGTQVTVSS	high polyreactivity
QVQLVESGGGLLQAGGRLRLSCAASVSIFTRYDMGWYRQAPGKEREFVAAISRGGGSTYYADSVKVRFTISLDNAKNTVYLQMISLKPENTAVYYCAPGVARYVKTASDYWGHGTQVTVSS	high polyreactivity
QVQLVESAARLVQAGASLPLSCPASGRIFYTNAMGCYRQAPGKERELVAVMSWGGDTTYYADSVKGRFTISRDNATNTVYLQMNSLKPEDSAVYYCNAYSGPTYEIYDSWGLGTQVTVSS	low polyreactivity
QVQLVESGGGLDQAGGSLRLSCAASGNIFSDSTMGWYRQAPGKEIELVAAISGDGGTTYYADSVKGRFTISRDNAKHTVYLQMNSLKPEDTAVYFCAGDGYYDAYDQFFIVYYEYDYWGQGTQVTVSS	low polyreactivity
QVQLQESGGGLVQAGVSLRLSCAASGTIFTARFMAWYRQAPGKERELVATITDGGNTNHADSVKGRFSISRDNAKNTVSLQMNSLKPEYAAVYYCAAGEVDNDTLLFWGQGSQVTVSS	low polyreactivity
QVQLVESGGGLVQAGGSLRLSCAASGSIFSYNAMGWYRQAPGKERELVAAISWSGGSTYYADSVKGRFTISRDNAKNTVYLQMNSLKPEDTAVYYCNAYRYRQSSSDKYGYWGQGTQVTVSS	high polyreactivity
QVQLVESGGGLVQAGGSLRLSCAASGFIFKRYAMGWYRQAPGKERELVAPITSNGGRTYYADSVKGRFTISRDNAKNTVYLQMNSLKPEHTAVYYCARDSQYYEQDDYWGQGTQVTVSS	high polyreactivity
QVQLVESGGGLVQAGGSLRLSCAASGSTLGRNAMGWDRQAPGKERELVASITRSGGSTYYADSVKGRFTISRDNAKNTVYLQMNSLKPEDTAVYYCAAEVQGQVGEFDYWGQGTQVTVSS	low polyreactivity
QVQLVESGGGLVQAGGSLRLSCAASGSIFPWNTMGWYRQAPGKERELVARISTSGASTYYADSVKGRFTISRDNAKYTVYLQMNSLKQEDTAVYFCAKVRHYGGRSWWYYYWGQGTQVTVSS	high polyreactivity
QVQLVESGGGLVQAGGSLRLSCSASGSIFYVYAMGWYRPAPGKERELVAAITSSGTTNYADSVKGRFTISRDNAKNTVYLQMNSLKPEDTAVYYCAADPDSGQVPFDYWVQGTQVTVSS	low polyreactivity
QVQLVESGGGLVQAGGSLRLSCAASGSTFNINGMGWYRQAPGKERELVASITGSGGNTYYADSVKGRFTISRDNAKNTVYLQMNSLKPEDTAVYYCNTTLYTGQPGRTFDYWGQGTQVTVSS	low polyreactivity
QVQLVESGGGLVQAGGSLRLSCSASGIIFGFYAMGWYRQAPGKERELVAAITNDGGNTNYADSVKGRFTISRDNAKNTVYLQMNSLKPEDTAVYYCNADRTQDRNPYTYATFDYWGQGTQVTVSS	low polyreactivity
QVQLVESGGGLVQAGGSLRLSCAASGSTFSLYAMGWYRQAPGKERELVARISYTDGSTYYADSVKGRFTISRDNAKNTVYLQMNSLKPEDTAVYYCAAEAWYSYTLEDYWGQGTQVTVSS	low polyreactivity
QVQLEESGGGLVQAGGSLRLSCAASGSIFIANAMGWYRQAPGKERELVAVINWGDGSTYADSVKGRFTISRDNAKNTVYLQMNSLKPEDTAVYYCNAPDEVNDVRYDYWGQGTQVTVSS	low polyreactivity
QDQLVESGGGLVQAGGSLRLSCAASGSIFGVNDMGWYRQGAGKERELVAGINQGGGSTYYADSVKGRFTISRDNAKNSVYLQMNSLKPEETAVYYCAAVRYVLRSPARYGYWGQGTQVTVSS	low polyreactivity
QVQLVQSGGGLVKAGGSLRLRCAASGFTFVKYAMGCYRQAPGKERELIAVISRRGGSTYYADSVKGRFTISRDNAKNTVYLQMNSLKPEDSAVYYCAGVYYLYSAWRYDYWGLGTQVTVSS	high polyreactivity
QVQLVESGAGLVQAGGSLRLSCAASGNIFVEYAKGWYRQAPGKERELVAAITNTGGRTHYADSVKGRFTISRDNAKNTVYFQMNSLKPEDTAVYDCASRRTGYYGTRDYWGQVTQVTVSS	high polyreactivity
QVQLVESGRGLVQEGGSLRLSCAPSGLIFRYYAMGWYRQAPGKEREFVAAISGRGASTYYADSVKGRFTISRDNAKITGYLQMNSLTPEDTAVYYCATYFPSAVVAFHMDYWGQGTQVTVSS	high polyreactivity
QVQLVESGGGLVQAGGSLRLSCAASGSIFYHNAMGWYRQAPGKERELVAAITWSGSTTYYADSVKGRFTISRDNAKNTVYLQMNSLKPEDTAVYYCNAGNRHGHYDYWGQGTQVTVSS	low polyreactivity
QVQLVESGGGLVQAGGSLRLSCAASGRTFWVYAMGWYRQAPGKERELVAAISLSGVSTYYADSVKGRFTISRDNAKNTVYLQMNSLKPDDTAVYYCAAPLIYTPLKYHYWGQGTQVTVSS	low polyreactivity
QVQLVESGGGLVQAGGSLRLSCAASGSIFTVYAMGWSRQAPGKERELVAAITSGGSTNYADSVKGRFTISRDNAKNTVYLQMNSLKPEDTAVYDCNAVWRYGSARYGYWGQGTQVTVSS	low polyreactivity

Sequence	polyreactivity (PSR sort gate)
QVQLVESGGGLVQAGGSLRLSCAASGSTFARYTMGWYRQAPGKERELVAAITSNGVSTYYADSVKGRFTISRDNAKNTVYLQMNSLKPEDTAVYYCAASSRSRYGRNDYWGQGTQVTVSS	low polyreactivity
QVQLEESGGGLVQAGGSLRLSCAASGSTFWLNAMGWYRQAPGKESELVASITWSGDSTYYADSVKGRFTISRDNAKNTVYLQMNSLKPEDTAVYYCNTDSILGQIWGATDDYWGQGTQVTVSS	low polyreactivity
QVQLVESGGGLFQAGGSLRLSCAASRLIFPLYAMGWYRKAPWKERELVAANTRGGSTYYADSVKGRLTISSDNANNTVYLQINSLKAEDTAVYDCNDELPVHWSWYDYWGQGTQVTVSS	low polyreactivity
QVQLVESGGGLVQAGGSLRLSCAASGRTLYKYAMGWYRQAPGKERELVAAISRNGGSTYYADSVKGRFTISRDNAKNTVYLQMNSLKPEDTAVYYCNKRWGYQYLWVADYDYWGQGTQVTVSS	high polyreactivity
QVQLVESGGGLVQSGGSLRLSCAASGYIFGYYAMGWYRQAPGKERELVAAITGTDDTYYADSVKGRFTISRDNAKNTVYLQMNSLKPEDTAVYYCAAYSWWNEYDYWGQGTQVTVSS	high polyreactivity
QVQLVESGGGLVQAGGSLRLICAASGSTSLVYAMGWYRQAPGKERDLVAAISWSGGSTYYADSVKGRFTISRDNAKNTVYLQMNSLKPEDTAVYYCAAEYYGYWEYDYWGQGTQVTVSS	high polyreactivity
QVQLVESGGGLVQAGGSLRLSCAASGSIFYSYAMGWDRQAPGKERELVAAISRIGGTTYYADSVKGRFTISRDNAKNTVYLQMNSLKPEDTAVYYCAAGPLLPRYSQYGYWGQGTQVTVSS	low polyreactivity
QVQLVESGGGVVQAGGSLRLSCAASGRIFRYYAMGWYRQAPGKERELVAGITTGGGSTYYADSVKGRFTISRDNAKNTVYLQMNSLKPEDTAVYYCAARYYTTFYWGQGTQVTVSS	high polyreactivity
QVQLVESGGGLVQAGGSLRLSCAASGRTFLGYTMGWYRQAPGKEREFVAAITFSGDSTYYADSVKGRFTISRDNAKNTVYLQMNSLKPEDTAVYYCAARKKYYTYLFYYWGQGTQVTVSS	high polyreactivity
QVQLVESGGGLVHAGGSLRLSCAASGSIYYGNAMGWYIQAPGKERELVARISWSGSNTRYADSVKGRFTISRDNSKITVYLQMNSLKPEDTAVYYCNRGSYQTSFFRYDYWGQGTQVTVSS	high polyreactivity
QVQLVESGGGLVPAGGSLRLSCAASGRIFGYYAMGWYRQATGKERELLATIRWRGGSPYYADSVKGRFTISRDNAKNTVYLQMNSLKPEVTAVYYCAATRARRWSSPGQYGYWGQGTQVTVSS	high polyreactivity
QVQLVESGGGLVQAGGSLRLSCAASGRIFDEYAMGWYRQAPGKERELVAAIDTSTGSTYYADSVKGRFTISRDNAKNTVYLQMNSLKPEDTAVYYCAAEVYFGLFYVVFQYDYWGQGTQVTVSS	high polyreactivity
QVQLVESGGGLVQAGGSLRLSCAASGRLFTIYAMGGYTQAPGKERELVATISRRGGSTYYADSVKGRFTISRDNAKNTVYLQMNSLKPEDTAVYYCAKRQRSKAAVAGYVDATGEMDYWGQGTQVTVSS	high polyreactivity
QVQLVESGGGLVQAGGSLRLSCAASGSIFPYAMGWYRQSPGKERELVAAITRSGASTYYADSVKGRFTISRDNAKNTVYLQMNSLKPEDTAVYYCAAYALRGVRYPYRVDFYYWGQGTQVTVSS	high polyreactivity
QVQLVESGGGLVQAGGSLRLSCAASGTFYYYAMGWYRQAPGKERELVAAIDYSGGSTYYADSVKGRFTISRDNAKNTVYLQMNSLKPEDTAVYYCAYVSVYDFEFWGQGTQVTVSS	high polyreactivity
QVQLVESGGGLVQAGGSLRLSCAASGRTFWRYAMGWYRQAPGKERELVATISSGGSTNYADSVKGRFTISRDNAKNTVYLQMNSLKPEDTAVYYCNAEYSYYDLLAYDYWGQGTQVTVSS	low polyreactivity
QVQLVESGGGLVQAGGSLRLSCAASGRTFKYNAMAWYRQAPGTERELVADISYSGDSTYYADSVKGRFTISRDNAKNTVYLQMNSLKPEDTAVYYCNAVLTHGRLWRAHGYWGQGTQVTVSS	high polyreactivity
QVQLVESGGGVVQAGGSLRLSCAASGSTFTTNAMGWYRQAPGKDREFVAAIRRTSGRTYYADSVKGRFTISRDNAKNTVYLQMNSLKPEDTAVFYCATDSYSPYGLKSRYDYWGQGTQVTVSS	high polyreactivity
QVQLVESGGGLVQAGGSLRLSCAASGRIFTYYTMGWYRQAPGKERELVAAISWSGGRTYYADSVKGRFTISRDNAKNTVYLQMNSLKPEDTAVYYCARLQDSRESPWRGYYWGQGTQVTVSS	high polyreactivity
QVQLDESGGGLVQAGGSLRLSCAASGRTFGVYAMGWYRQAPGKERELVAAIRWSGGGTYYADSVKVRFTISRDNAKNTVYLQMNSLKPEDTAVYYCAATLENSPYTRYTDMYYWGQGTQVTVSS	low polyreactivity
QVQLVESGGGLVQAGGSLRLSCAASGFMFDGYAMGWYRQAPGKERELVAAINFSGGSTYYADSVKGRFTISRDNAKNTVYLQMNSLKPEETAVYYCNADLEWNWVQFGYGYWGQGTQVTVSS	low polyreactivity
